The text below walks through data of PMC6325239 (Nature Communications, 2019).

This experiment deals with T1, Munc13-1 MUN domain (residues 933–1407, EF, 1453–1531) (rat, UniProt Q62768 933-1407; Q62768 1453-1531).
T1 construct: Munc13-1, rat, residues 933-1407; linker that replaces residues 1408-1452; Munc13-1, rat, residues 1453-1531; Used in native PAGE, crystallization and, as far as told, fluorescence anisotropy; also called the MUN domain; source: E. coli BL21 DE3, pGEX-KG, purified (glutathione Sepharose, thrombin, SEC, ion exchange)
Nature of the experiment: crystal structure; MUN crystals (20% PEG 3350, 0.1 M MES pH 5.8–6.3, 0.2 M Mg(NO3)2, 4 °C) soaked with the LR peptide at 1:4 (MUN:peptide); 2.8 Å. The settings on record: both partners purified.

B1: Syb2 linker region peptide (residues 75–93 of Syb2) (peptide)
peptide: SQFETSAAKLKRKYWWKNL
notes: synaptobrevin-2 (Syb2), residues 75-93; also called LR; Syb2 peptide; source: synthetic peptide (Scilight Biotechnology, Beijing)
B1: the binding result is on record as “binds”.
